# Laboratory results: PMC4245953, “Hug1 is an intrinsically disordered protein that inhibits ribonucleotide reductase activity by directly binding Rnr2 subunit” (Nucleic Acids Research, 2014)
# T1: (His)6-Rnr2-Rnr4 complex (S. cerevisiae, UniProt P09938 1-399; P49723 1-345)
# T1 construct: Rnr2, S. cerevisiae; Rnr4, S. cerevisiae; also called Rnr2/4; source: E. coli BL21 (DE3) gold, co-expressed; purified (Ni-NTA, anion exchange) for NMR; 'purified' by the text or 'soluble extracts' by the legend in the pull-down
# T1 sequence (looked up) 1: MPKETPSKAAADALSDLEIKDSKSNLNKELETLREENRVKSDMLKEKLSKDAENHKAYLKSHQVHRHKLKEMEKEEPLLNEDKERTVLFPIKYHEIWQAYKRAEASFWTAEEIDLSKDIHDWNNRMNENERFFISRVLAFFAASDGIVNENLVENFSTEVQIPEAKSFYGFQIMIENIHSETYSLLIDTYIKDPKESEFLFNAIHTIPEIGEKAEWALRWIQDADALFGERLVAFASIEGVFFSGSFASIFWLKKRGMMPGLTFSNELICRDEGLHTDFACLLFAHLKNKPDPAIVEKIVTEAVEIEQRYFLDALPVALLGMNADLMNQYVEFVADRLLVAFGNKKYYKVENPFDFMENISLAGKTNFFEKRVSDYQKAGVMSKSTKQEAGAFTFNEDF
# T1 sequence (looked up) 2: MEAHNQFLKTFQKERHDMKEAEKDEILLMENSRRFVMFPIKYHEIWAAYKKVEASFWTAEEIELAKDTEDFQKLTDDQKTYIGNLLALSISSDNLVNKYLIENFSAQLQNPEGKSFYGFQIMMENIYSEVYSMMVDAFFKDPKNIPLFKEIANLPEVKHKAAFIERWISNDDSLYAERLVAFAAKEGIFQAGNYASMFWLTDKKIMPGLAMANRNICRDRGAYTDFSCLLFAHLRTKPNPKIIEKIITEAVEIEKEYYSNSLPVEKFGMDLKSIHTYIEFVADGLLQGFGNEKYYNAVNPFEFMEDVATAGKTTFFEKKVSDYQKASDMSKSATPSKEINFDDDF
# B1: Recombinant Hug1 (tags cleaved), 15N-labeled (natural protein, S. cerevisiae, UniProt Q6Q5K6 1-68, looked up)
# chain: MTMDQGLNPKQFFLDDVVLQDTLCSMSNRVNKSVKTGYLFPKDHVPSANIIAVERRGGLSDIGKNTSN
# modifications: also: uniformly 15N-labeled
# notes: Hug1, S. cerevisiae, released from (His)6-GST-TEV site-Hug1 by TEV protease; calculated mass 7.5 kDa; protein of 68 residues; also called 15N-Hug1; purified recombinant Hug1; source: E. coli BL21 (DE3) gold, purified (Glutathione-agarose, TEV cleavage, Ni-NTA flow-through); not shown: His6, N-terminal, cleaved; GST, N-terminal, cleaved
# Legend:
# [1] = target: Rnr2-Rnr4 (Saccharomyces cerevisiae) (UniProt P09938); settings: cited from earlier work
# [2] = target: RNR R2 (Escherichia coli) (UniProt P69924); settings: cited from earlier work
# Chain of RNR R2 (Escherichia coli) (P69924 2-376): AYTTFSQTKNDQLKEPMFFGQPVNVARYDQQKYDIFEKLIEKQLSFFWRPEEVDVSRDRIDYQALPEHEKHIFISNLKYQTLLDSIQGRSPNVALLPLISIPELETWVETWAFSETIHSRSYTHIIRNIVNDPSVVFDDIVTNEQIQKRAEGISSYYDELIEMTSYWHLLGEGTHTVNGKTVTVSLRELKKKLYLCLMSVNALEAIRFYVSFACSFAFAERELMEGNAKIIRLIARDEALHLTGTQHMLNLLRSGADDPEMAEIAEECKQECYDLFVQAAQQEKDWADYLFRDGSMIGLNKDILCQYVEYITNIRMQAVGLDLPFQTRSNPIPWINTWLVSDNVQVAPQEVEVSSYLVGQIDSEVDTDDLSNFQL
# RNR R2 (Mus musculus) = RNR R2 (Mus musculus) (UniProt P11157); settings: cited from earlier work
# Chain of RNR R2 (Mus musculus) (P11157 whole entry): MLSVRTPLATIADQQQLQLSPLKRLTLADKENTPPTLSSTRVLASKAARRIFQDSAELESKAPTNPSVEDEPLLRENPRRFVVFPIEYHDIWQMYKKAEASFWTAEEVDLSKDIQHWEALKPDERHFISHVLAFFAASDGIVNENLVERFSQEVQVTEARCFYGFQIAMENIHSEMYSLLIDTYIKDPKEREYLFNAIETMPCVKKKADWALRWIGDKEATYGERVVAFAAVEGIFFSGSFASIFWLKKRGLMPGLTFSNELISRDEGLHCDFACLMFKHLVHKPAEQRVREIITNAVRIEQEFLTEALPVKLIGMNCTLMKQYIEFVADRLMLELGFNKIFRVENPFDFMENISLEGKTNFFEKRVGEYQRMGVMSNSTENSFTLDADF
# [3] = target: Rnr1 (Saccharomyces cerevisiae) (UniProt P21524); settings: cited from earlier work
# Chain of Rnr1 (Saccharomyces cerevisiae) (P21524 whole entry): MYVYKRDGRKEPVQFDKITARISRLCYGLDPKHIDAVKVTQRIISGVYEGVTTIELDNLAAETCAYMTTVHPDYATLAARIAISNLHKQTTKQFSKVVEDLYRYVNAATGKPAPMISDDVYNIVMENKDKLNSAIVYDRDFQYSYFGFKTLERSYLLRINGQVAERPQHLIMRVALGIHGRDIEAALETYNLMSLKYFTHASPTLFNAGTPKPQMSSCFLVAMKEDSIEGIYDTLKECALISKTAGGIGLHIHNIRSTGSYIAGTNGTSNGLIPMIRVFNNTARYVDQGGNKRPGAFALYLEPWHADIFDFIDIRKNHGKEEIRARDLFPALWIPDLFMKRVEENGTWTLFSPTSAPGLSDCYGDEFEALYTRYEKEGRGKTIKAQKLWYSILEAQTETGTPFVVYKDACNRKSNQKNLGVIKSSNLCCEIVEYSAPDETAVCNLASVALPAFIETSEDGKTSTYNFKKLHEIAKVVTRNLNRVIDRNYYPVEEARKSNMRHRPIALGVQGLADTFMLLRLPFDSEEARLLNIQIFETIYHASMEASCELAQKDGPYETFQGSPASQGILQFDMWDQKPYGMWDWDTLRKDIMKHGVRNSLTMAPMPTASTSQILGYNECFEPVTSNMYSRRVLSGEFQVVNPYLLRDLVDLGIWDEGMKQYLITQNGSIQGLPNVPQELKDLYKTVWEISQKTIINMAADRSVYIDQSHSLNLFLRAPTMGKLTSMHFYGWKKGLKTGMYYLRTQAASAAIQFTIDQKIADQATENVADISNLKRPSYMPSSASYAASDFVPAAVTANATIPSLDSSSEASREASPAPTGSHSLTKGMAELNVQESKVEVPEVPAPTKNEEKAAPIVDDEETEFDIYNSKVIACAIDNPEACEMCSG
# [4] = target: Cdc22 (R1) (Schizosaccharomyces pombe) (UniProt P36602); settings: cited from earlier work
# Chain of Cdc22 (R1) (Schizosaccharomyces pombe) (P36602 whole entry): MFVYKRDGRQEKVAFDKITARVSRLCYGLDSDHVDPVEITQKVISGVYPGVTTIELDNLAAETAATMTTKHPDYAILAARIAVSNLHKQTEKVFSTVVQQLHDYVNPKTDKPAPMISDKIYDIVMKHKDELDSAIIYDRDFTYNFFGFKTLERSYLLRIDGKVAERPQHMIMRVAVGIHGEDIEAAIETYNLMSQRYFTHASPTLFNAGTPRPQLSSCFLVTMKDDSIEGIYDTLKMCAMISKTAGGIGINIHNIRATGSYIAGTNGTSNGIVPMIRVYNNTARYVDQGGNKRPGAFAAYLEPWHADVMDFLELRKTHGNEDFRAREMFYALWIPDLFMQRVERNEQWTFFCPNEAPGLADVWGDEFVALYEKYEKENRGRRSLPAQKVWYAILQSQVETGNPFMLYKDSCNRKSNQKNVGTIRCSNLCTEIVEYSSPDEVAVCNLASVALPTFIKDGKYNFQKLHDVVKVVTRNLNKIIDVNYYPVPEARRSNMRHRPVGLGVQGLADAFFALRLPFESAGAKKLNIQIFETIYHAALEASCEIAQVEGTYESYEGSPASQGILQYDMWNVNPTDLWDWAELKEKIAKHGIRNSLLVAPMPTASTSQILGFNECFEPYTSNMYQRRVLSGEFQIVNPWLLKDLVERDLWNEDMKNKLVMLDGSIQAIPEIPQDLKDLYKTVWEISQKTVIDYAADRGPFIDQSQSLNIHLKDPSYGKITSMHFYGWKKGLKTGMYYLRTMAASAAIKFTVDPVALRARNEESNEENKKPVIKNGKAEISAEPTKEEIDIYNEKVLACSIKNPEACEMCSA
# (His)6-Rnr2-Rnr4 complex = target: T1, (His)6-Rnr2-Rnr4 complex; assay: NMR titration; 1H-15N HSQC of 15N-Hug1 with increasing unlabeled (His)6-Rnr2-Rnr4; Tris-d11 10 mM pH 7.5; 22°C (50 uM Hug1, ratios 1:0.125 to 1:1.6, global fit of four peaks, 1:1 model) and 9°C (16.4 uM Hug1, ratio 1:2); settings: both partners purified
molecule,measurement,setting,value
Dif1 (from UniProt O13577),Kd,[1],600 nM
RNR R1 (from UniProt P00452),Kd,[2],100 nM
RNR R1 (from UniProt P07742),Kd,RNR R2 (Mus musculus),100 nM
Sml1 (from UniProt Q04964),Kd,[3],400 nM
Spd1 (from UniProt Q10585),Kd,[4],2400 nM
B1,Kd,(His)6-Rnr2-Rnr4 complex,1600 ± 600 nM
